Experimental data reported in patent publication US20260250381A1.
Numbering of substitutions follows the chain as printed. Blank lines part the entries; values can stand above or below the binder they belong to.

Experiments:
[1] = molecular target: T1, human TREM2 (human) (UniProt Q9NZC2); assay: 2nd screen, 2 nM Ab
T1 sequence (looked up): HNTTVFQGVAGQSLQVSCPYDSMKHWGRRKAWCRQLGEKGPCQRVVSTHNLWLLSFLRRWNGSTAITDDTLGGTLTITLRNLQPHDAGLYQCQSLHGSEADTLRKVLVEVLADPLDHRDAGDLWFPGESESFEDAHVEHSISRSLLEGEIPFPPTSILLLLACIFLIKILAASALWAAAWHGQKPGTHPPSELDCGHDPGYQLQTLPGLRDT

[2] = molecular target: T1, human TREM2 (human); assay: 1st screen, 10 nM Ab
[3] = molecular target: T1, human TREM2 (human); assay: 2nd screen, 10 nM Ab
[4] = molecular target: T1, human TREM2 (human); assay: 1st screen, 110 nM Ab
[5] = molecular target: T1, human TREM2 (human); assay: 2nd screen, 100 nM Ab

B2: 6E7 variant V31 (antibody, V domains shown)
VH: EVQLVQSGAEVKKPGESLKISCKGSGYSFTSYWIAWVRQMPGKGLEWMGIIYPGDSETRYSPSFQGQVTISADKSISTAYLQWSSLKASDTAMYFCARQRTFYYDSSDYFDYWGQGTLVTVSS
VL: DIQMTQSPSSVSASVGDRVTITCRASQGISSWLAWYQQKPGKAPKLLIYAASSLQNGVPSRFSGSGSGTDFTLTISSLQPEDFATYFCQQADSFPRTFGQGTKLEIK
Binding Signal (fold over 6E7 parental antibody) [4]: 0.61 fold | Binding Signal (fold over 6E7 parental antibody) [5]: 0.73 fold

B3: 6E7 variant V32 (antibody, V domains shown)
VH: B2 VH with E57D, P62N
VL: B2 VL
Binding Signal (fold over 6E7 parental antibody) [4]: 0.82 fold | Binding Signal (fold over 6E7 parental antibody) [5]: 0.89 fold

B6: 6E7 variant V20 (antibody, V domains shown)
VH: B2 VH with I50R, E57D
VL: B2 VL
Binding Signal (fold over 6E7 parental antibody) [4]: 0.18 fold | Binding Signal (fold over 6E7 parental antibody) [5]: 0.52 fold

B8: 6E7 variant V37 (antibody, V domains shown)
VH: B2 VH with F29H, E57D, Q65A, Q99S
VL: B2 VL with N56W, F94Y
Binding Signal (fold over 6E7 parental antibody) [1]: 3.69 fold | Binding Signal (fold over 6E7 parental antibody) [2]: 3.46 fold | Binding Signal (fold over 6E7 parental antibody) [3]: 3.49 fold

B12: 6E7 variant V64 (antibody, V domains shown)
VH: B2 VH with T30Q, E57D, Q99G
VL: B2 VL with Q55A, F94Y
Binding Signal (fold over 6E7 parental antibody) [1]: 4.88 fold | Binding Signal (fold over 6E7 parental antibody) [2]: 5.41 fold | Binding Signal (fold over 6E7 parental antibody) [3]: 5.48 fold

B13: 6E7 variant V73 (antibody, V domains shown)
VH: B2 VH with T30G, E57D, S63G, Q99G
VL: B2 VL with L54R, F94Y
Binding Signal (fold over 6E7 parental antibody) [1]: 4.17 fold | Binding Signal (fold over 6E7 parental antibody) [2]: 5.12 fold | Binding Signal (fold over 6E7 parental antibody) [3]: 5.44 fold

B14: 6E7 variant V1 (antibody, V domains shown)
VH: B2 VH with Y32S, E57D, Q99S
VL: B2 VL with Q55T, F94Y
Binding Signal (fold over 6E7 parental antibody) [1]: 1.29 fold | Binding Signal (fold over 6E7 parental antibody) [2]: 1.68 fold | Binding Signal (fold over 6E7 parental antibody) [3]: 1.92 fold

B16: 6E7 variant V33 (antibody, V domains shown)
VH: B2 VH with E57D, Y104G
VL: B2 VL
Binding Signal (fold over 6E7 parental antibody) [4]: 0.23 fold | Binding Signal (fold over 6E7 parental antibody) [5]: 0.34 fold

B19: 6E7 variant V50 (antibody, V domains shown)
VH: B2 VH with T30G, I50V, E57D, F110L
VL: B2 VL with L54R, F94L
Binding Signal (fold over 6E7 parental antibody) [1]: 3.39 fold | Binding Signal (fold over 6E7 parental antibody) [2]: 4.1 fold | Binding Signal (fold over 6E7 parental antibody) [3]: 4.16 fold

B20: 6E7 variant V48 (antibody, V domains shown)
VH: B2 VH with T30G, E57D, T58V, Q99M
VL: B2 VL with N56T, F94L
Binding Signal (fold over 6E7 parental antibody) [1]: 2.3 fold | Binding Signal (fold over 6E7 parental antibody) [2]: 2.42 fold | Binding Signal (fold over 6E7 parental antibody) [3]: 2.54 fold

B21: 6E7 variant V65 (antibody, V domains shown)
VH: B2 VH with E57D, Q99S
VL: B2 VL
Binding Signal (fold over 6E7 parental antibody) [1]: 1.29 fold | Binding Signal (fold over 6E7 parental antibody) [2]: 2.05 fold | Binding Signal (fold over 6E7 parental antibody) [3]: 2.75 fold

B23: 6E7 variant V21 (antibody, V domains shown)
VH: B2 VH with E57D, Y109F
VL: B2 VL
Binding Signal (fold over 6E7 parental antibody) [4]: 0.76 fold | Binding Signal (fold over 6E7 parental antibody) [5]: 0.68 fold

B27: 6E7 variant V63 (antibody, V domains shown)
VH: B2 VH with T30R, E57D, Q99S
VL: B2 VL with N56R, S93R
Binding Signal (fold over 6E7 parental antibody) [1]: 4.91 fold | Binding Signal (fold over 6E7 parental antibody) [2]: 3.76 fold | Binding Signal (fold over 6E7 parental antibody) [3]: 3.71 fold

B30: 6E7 variant V60 (antibody, V domains shown)
VH: B2 VH with S28H, E57D, T58V, F110S
VL: B2 VL with N56R, Q89G
Binding Signal (fold over 6E7 parental antibody) [1]: 3.35 fold | Binding Signal (fold over 6E7 parental antibody) [2]: 3.26 fold | Binding Signal (fold over 6E7 parental antibody) [3]: 3.63 fold

B31: 6E7 variant V38 (antibody, V domains shown)
VH: B2 VH with T30G, E57D, T58V
VL: B2 VL with L54R, F94H
Binding Signal (fold over 6E7 parental antibody) [1]: 3.44 fold | Binding Signal (fold over 6E7 parental antibody) [2]: 4.34 fold | Binding Signal (fold over 6E7 parental antibody) [3]: 4.36 fold

B32: 6E7 variant V22 (antibody, V domains shown)
VH: B2 VH with E57D
VL: B2 VL with A50R
Binding Signal (fold over 6E7 parental antibody) [4]: 0.3 fold | Binding Signal (fold over 6E7 parental antibody) [5]: 0.71 fold

Results, then the binder that gave them:

Binding Signal (fold over 6E7 parental antibody) [1]: 4 fold | Binding Signal (fold over 6E7 parental antibody) [2]: 3.38 fold | Binding Signal (fold over 6E7 parental antibody) [3]: 3.44 fold
B1: 6E7 variant V36 (antibody, V domains shown)
VH: B2 VH with I34L, E57D, Q99S
VL: B2 VL with L54R, F94Y

Binding Signal (fold over 6E7 parental antibody) [1]: 2.23 fold | Binding Signal (fold over 6E7 parental antibody) [2]: 2.55 fold | Binding Signal (fold over 6E7 parental antibody) [3]: 2.9 fold
B4: 6E7 variant V2 (antibody, V domains shown)
VH: B2 VH with Y27S, S56G, E57D, Q99S
VL: B2 VL with L54R, S93R

Binding Signal (fold over 6E7 parental antibody) [1]: 0.66 fold | Binding Signal (fold over 6E7 parental antibody) [2]: 1.25 fold | Binding Signal (fold over 6E7 parental antibody) [3]: 1.17 fold
B5: 6E7 variant V53 (antibody, V domains shown)
VH: B2 VH with E57D, S63H
VL: B2 VL

Binding Signal (fold over 6E7 parental antibody) [4]: 0.4 fold | Binding Signal (fold over 6E7 parental antibody) [5]: 0.4 fold
B7: 6E7 variant V23 (antibody, V domains shown)
VH: B2 VH with E57D
VL: B2 VL with R96L

Binding Signal (fold over 6E7 parental antibody) [4]: 0.79 fold | Binding Signal (fold over 6E7 parental antibody) [5]: 0.72 fold
B9: 6E7 variant V30 (antibody, V domains shown)
VH: B2 VH with Y27S, E57D
VL: B2 VL

Binding Signal (fold over 6E7 parental antibody) [4]: 0.59 fold | Binding Signal (fold over 6E7 parental antibody) [5]: 0.48 fold
B10: 6E7 variant V19 (antibody, V domains shown)
VH: B2 VH with Y32S, E57D
VL: B2 VL

Binding Signal (fold over 6E7 parental antibody) [1]: 5.11 fold | Binding Signal (fold over 6E7 parental antibody) [2]: 6.15 fold | Binding Signal (fold over 6E7 parental antibody) [3]: 5.81 fold
B11: 6E7 variant V39 (antibody, V domains shown)
VH: B2 VH with T30G, E57D, S61N, Q99G
VL: B2 VL with Q55V, F94S

Binding Signal (fold over 6E7 parental antibody) [1]: 0.58 fold | Binding Signal (fold over 6E7 parental antibody) [2]: 1.74 fold | Binding Signal (fold over 6E7 parental antibody) [3]: 1.72 fold
B15: 6E7 variant V41 (antibody, V domains shown)
VH: B2 VH with I50T, E57D
VL: B2 VL

Binding Signal (fold over 6E7 parental antibody) [1]: 3.41 fold | Binding Signal (fold over 6E7 parental antibody) [2]: 4.48 fold | Binding Signal (fold over 6E7 parental antibody) [3]: 4.16 fold
B17: 6E7 variant V40 (antibody, V domains shown)
VH: B2 VH with T30G, E57D, T58V, F110S
VL: B2 VL with N56L, S93R

Binding Signal (fold over 6E7 parental antibody) [1]: 1.83 fold | Binding Signal (fold over 6E7 parental antibody) [2]: 2.81 fold | Binding Signal (fold over 6E7 parental antibody) [3]: 3.18 fold
B18: 6E7 variant V51 (antibody, V domains shown)
VH: B2 VH with E57D, T58V, Q99G, Y112N
VL: B2 VL with L54R

Binding Signal (fold over 6E7 parental antibody) [4]: 0.79 fold | Binding Signal (fold over 6E7 parental antibody) [5]: 0.42 fold
B22: 6E7 variant V11 (antibody, V domains shown)
VH: B2 VH with E57D
VL: B2 VL with D92A

Binding Signal (fold over 6E7 parental antibody) [1]: 5.02 fold | Binding Signal (fold over 6E7 parental antibody) [2]: 6.51 fold | Binding Signal (fold over 6E7 parental antibody) [3]: 6.58 fold
B24: 6E7 variant V49 (antibody, V domains shown)
VH: B2 VH with T30N, I50T, E57D, Y60L, Q99S
VL: B2 VL with L54R, F94Y

Binding Signal (fold over 6E7 parental antibody) [1]: 2.54 fold | Binding Signal (fold over 6E7 parental antibody) [2]: 3.94 fold | Binding Signal (fold over 6E7 parental antibody) [3]: 4.01 fold
B25: 6E7 variant V74 (antibody, V domains shown)
VH: B2 VH with T30A, E57D, T58V, Q99G
VL: B2 VL with N56L

Binding Signal (fold over 6E7 parental antibody) [4]: 0.17 fold | Binding Signal (fold over 6E7 parental antibody) [5]: 0.42 fold
B26: 6E7 variant V18 (antibody, V domains shown)
VH: B2 VH with W33H, E57D
VL: B2 VL

Binding Signal (fold over 6E7 parental antibody) [1]: 3.63 fold | Binding Signal (fold over 6E7 parental antibody) [2]: 5.08 fold | Binding Signal (fold over 6E7 parental antibody) [3]: 5.22 fold
B28: 6E7 variant V61 (antibody, V domains shown)
VH: B2 VH with T30S, E57D, S61N, Q99G
VL: B2 VL with Q55V, F94L

Binding Signal (fold over 6E7 parental antibody) [1]: 1.87 fold | Binding Signal (fold over 6E7 parental antibody) [2]: 2.49 fold | Binding Signal (fold over 6E7 parental antibody) [3]: 2.89 fold
B29: 6E7 variant V62 (antibody, V domains shown)
VH: B2 VH with T30G, E57D, S61A, D108G
VL: B2 VL with N56R, Q89G
